Experimental data taken from patent publication EP0155825A2, “Novel choline derivatives” (NITTO BOSEKI CO., LTD., priority 1984, dated 1985).

Substrate: C[N+](C)(C)CCOC(=O)c1ccc(O)c(O)c1
Assay: Km of the substrate for cholinesterase (UV method, absorbance decrease at 340 nm)
Assay type: biochemical
Details: other: 50 mM TRIS-maleate buffer (pH 8.20); compound as substrate of Ch-E; pH 8.2; 37.0 °C
Text: Fig. 1 represents UV spectra of 3,4-dihydroxybenzoylcholine iodide (hereinafter referred to briefly as DHBCI) and 3,4-dihydroxybenzoic acid. When DHBCI is hydrolyzed by the action of Ch-E, there are formed choline and 3,4-dihydroxybenzoic acid. […] Therefore, when DHBCI, a novel compound according to the present invention, is used as substrate in the assay of enzymatic activity of Ch-E and the reaction is traced through the absorbance at a wavelength of 340-360 nm, it is possible to follow precisely the decrease in substrate DHBCI. In the previously mentioned method of W. Kalow, since the measurement is done at a shorter wavelength of 240 nm, the initial absorption is interfered with by the blood constituents, whereas at a wavelength of 340-360 nm, the interference is very little and the conditions of reaction can be set up more easily. […]
The assay was performed by adjusting the substrate concentration to 0.25 mM with a 50 mM TRIS-maleate buffer (pH 8.20), preheating for about 5 minutes 2.0 mt of-the adjusted solution to 37°C, admixing the preheated solution with 200 µℓ of a serum, and immediately measuring the absorbance decrease at 340 nm of the mixture at 37°C. […] The activity of Ch-E was calculated from the following equation: [formula] • ^* ΔO.D.: Absorbance change per minute at a wavelength of 340 nm. • ^** Molar absorbance at 340 nm: 2960

B1: cholinesterase (enzyme code number of 3.1.1.8; referred to briefly as Ch-E) (Homo sapiens) (protein)
chain: EDDIIIATKNGKVRGMNLTVFGGTVTAFLGIPYAQPPLGRLRFKKPQSLTKWSDIWNATKYANSCCQNIDQSFPGFHGSEMWNPNTDLSEDCLYLNVWIPAPKPKNATVLIWIYGGGFQTGTSSLHVYDGKFLARVERVIVVSMNYRVGALGFLALPGNPEAPGNMGLFDQQLALQWVQKNIAAFGGNPKSVTLFGESAGAASVSLHLLSPGSHSLFTRAILQSGSFNAPWAVTSLYEARNRTLNLAKLTGCSRENETEIIKCLRNKDPQEILLNEAFVVPYGTPLSVNFGPTVDGDFLTDMPDILLELGQFKKTQILVGVNKDEGTAFLVYGAPGFSKDNNSIITRKEFQEGLKIFFPGVSEFGKESILFHYTDWVDDQRPENYREALGDVVGDYNFICPALEFTKKFSEWGNNAFFYYFEHRSSKLPWPEWMGVMHGYEIEFVFGLPLERRDNYTKAEEILSRSIVKRWANFAKYGNPNETQNNSTSWPVFKSTEQKYLTLNTESTRIMTKLRAQQCRFWTSFFPKVLEMTGNIDEAEWEWKAGFHRWNNYMMDWKNQFNDYTSKKESCVGL
notes: admixing the preheated solution with 200 µℓ of a serum; tissue Nissui Seiyaku Co. consera I; host or cells: serum (commercial control serum)
- Km: 26 µM
